Biological target: SVGmu, modified Sindbis virus envelope glycoprotein (SEQ ID NO: 11) (Sindbis virus) (UniProt P03316)
Assay: confocal imaging; anti-HA-biotin plus Cy5-streptavidin staining of GFP-vpr-labeled lentiviral particles on coverslips

Substance: anti-HA-biotin antibody (Miltenyi Biotec)
- fraction of GFP-labeled particles stained for SVGmu: > 90%

Reference: patent US20130230554A1
